This assay deals with PNKP (UniProt Q96T60). The assay can be described thus: Ni-NTA co-purification of XRCC1-His complexes, immunoblot. The note with it: reference: wild-type XRCC1-His; sites S518,T519,T523. (A western blot detects proteins with antibodies after separation by electrophoresis.)

“XRCC1 (from UniProt P18887) XRCC1-His S518A/T519A/T523A”: the “binding against the reference” value is listed as “weaker”.
